Assay results published in paper PMC4293355 (Developmental cell, 2014).

Target: G-actin (UniProt P68135 1-377)
Test: fluorescence polarisation

- Kd: ~21 nM
B1: TMR-SpWsp1(VCA) (domain or fragment)
chain: QDGRANLMASIRASGGMDLLKSRKVSASPSVASTKTSNPPVEAPPSNNLMDALASALNQRKTKVAQSDEEDEDDDEWD
modifications: TMR-labeled (position not given)
